Results as given in PMC12416549 (2024).

T1: TNFR1 (Homo sapiens, UniProt P19438)
T1 chain: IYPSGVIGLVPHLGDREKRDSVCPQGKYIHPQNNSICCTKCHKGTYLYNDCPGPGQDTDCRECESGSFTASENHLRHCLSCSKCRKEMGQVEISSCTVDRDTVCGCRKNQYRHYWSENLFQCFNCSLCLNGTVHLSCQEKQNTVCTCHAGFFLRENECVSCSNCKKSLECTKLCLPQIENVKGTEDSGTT


Molecular target: T1, TNFR1
Test: yeast display SC50

Binder	apparent Kd (screen) [nM]
Y50V (designed binder) SMEEEVEKAAKEYEKKKKEAIEKHLEKLKAKDKEAAERFLKELEEAAKEVAKDEAKTMSEEEAKRRAKKYKEKVLLSELSEEEQKEIKEAEEKLVRTILKYVEEAAK	0.0802
I21Y (designed binder) SMEEEVEKAAKEYEKKKKEAYEKHLEKLKAKDKEAAERFLKELEEAAKEYAKDEAKTMSEEEAKRRAKKYKEKVLLSELSEEEQKEIKEAEEKLVRTILKYVEEAAK	0.446
E49R (designed binder) SMEEEVEKAAKEYEKKKKEAIEKHLEKLKAKDKEAAERFLKELEEAAKRYAKDEAKTMSEEEAKRRAKKYKEKVLLSELSEEEQKEIKEAEEKLVRTILKYVEEAAK	0.956
E34W (designed binder) SMEEEVEKAAKEYEKKKKEAIEKHLEKLKAKDKWAAERFLKELEEAAKEYAKDEAKTMSEEEAKRRAKKYKEKVLLSELSEEEQKEIKEAEEKLVRTILKYVEEAAK	0.446
K107D (designed binder) SMEEEVEKAAKEYEKKKKEAIEKHLEKLKAKDKEAAERFLKELEEAAKEYAKDEAKTMSEEEAKRRAKKYKEKVLLSELSEEEQKEIKEAEEKLVRTILKYVEEAAD	0.0498
A55F (designed binder) SMEEEVEKAAKEYEKKKKEAIEKHLEKLKAKDKEAAERFLKELEEAAKEYAKDEFKTMSEEEAKRRAKKYKEKVLLSELSEEEQKEIKEAEEKLVRTILKYVEEAAK	11.4
V74R (designed binder) SMEEEVEKAAKEYEKKKKEAIEKHLEKLKAKDKEAAERFLKELEEAAKEYAKDEAKTMSEEEAKRRAKKYKEKRLLSELSEEEQKEIKEAEEKLVRTILKYVEEAAK	5.31
K52M (designed binder) SMEEEVEKAAKEYEKKKKEAIEKHLEKLKAKDKEAAERFLKELEEAAKEYAMDEAKTMSEEEAKRRAKKYKEKVLLSELSEEEQKEIKEAEEKLVRTILKYVEEAAK	0.446
E19N (designed binder) SMEEEVEKAAKEYEKKKKNAIEKHLEKLKAKDKEAAERFLKELEEAAKEYAKDEAKTMSEEEAKRRAKKYKEKVLLSELSEEEQKEIKEAEEKLVRTILKYVEEAAK	0.446
K68L (designed binder) SMEEEVEKAAKEYEKKKKEAIEKHLEKLKAKDKEAAERFLKELEEAAKEYAKDEAKTMSEEEAKRRALKYKEKVLLSELSEEEQKEIKEAEEKLVRTILKYVEEAAK	2.73
E19K (designed binder) SMEEEVEKAAKEYEKKKKKAIEKHLEKLKAKDKEAAERFLKELEEAAKEYAKDEAKTMSEEEAKRRAKKYKEKVLLSELSEEEQKEIKEAEEKLVRTILKYVEEAAK	0.49
Y13M (designed binder) SMEEEVEKAAKEMEKKKKEAIEKHLEKLKAKDKEAAERFLKELEEAAKEYAKDEAKTMSEEEAKRRAKKYKEKVLLSELSEEEQKEIKEAEEKLVRTILKYVEEAAK	0.593
E4G (designed binder) SMEGEVEKAAKEYEKKKKEAIEKHLEKLKAKDKEAAERFLKELEEAAKEYAKDEAKTMSEEEAKRRAKKYKEKVLLSELSEEEQKEIKEAEEKLVRTILKYVEEAAK	0.718
K69G (designed binder) SMEEEVEKAAKEYEKKKKEAIEKHLEKLKAKDKEAAERFLKELEEAAKEYAKDEAKTMSEEEAKRRAKGYKEKVLLSELSEEEQKEIKEAEEKLVRTILKYVEEAAK	2.25
K56T (designed binder) SMEEEVEKAAKEYEKKKKEAIEKHLEKLKAKDKEAAERFLKELEEAAKEYAKDEATTMSEEEAKRRAKKYKEKVLLSELSEEEQKEIKEAEEKLVRTILKYVEEAAK	3
K41W (designed binder) SMEEEVEKAAKEYEKKKKEAIEKHLEKLKAKDKEAAERFLWELEEAAKEYAKDEAKTMSEEEAKRRAKKYKEKVLLSELSEEEQKEIKEAEEKLVRTILKYVEEAAK	0.446
A30D (designed binder) SMEEEVEKAAKEYEKKKKEAIEKHLEKLKDKDKEAAERFLKELEEAAKEYAKDEAKTMSEEEAKRRAKKYKEKVLLSELSEEEQKEIKEAEEKLVRTILKYVEEAAK	1.4
S77I (designed binder) SMEEEVEKAAKEYEKKKKEAIEKHLEKLKAKDKEAAERFLKELEEAAKEYAKDEAKTMSEEEAKRRAKKYKEKVLLIELSEEEQKEIKEAEEKLVRTILKYVEEAAK	11.4

Binder	apparent Kd (screen) [nM]
F39V (designed binder) SMEEEVEKAAKEYEKKKKEAIEKHLEKLKAKDKEAAERVLKELEEAAKEYAKDEAKTMSEEEAKRRAKKYKEKVLLSELSEEEQKEIKEAEEKLVRTILKYVEEAAK	4.39
A63Q (designed binder) SMEEEVEKAAKEYEKKKKEAIEKHLEKLKAKDKEAAERFLKELEEAAKEYAKDEAKTMSEEEQKRRAKKYKEKVLLSELSEEEQKEIKEAEEKLVRTILKYVEEAAK	1.4
E26N (designed binder) SMEEEVEKAAKEYEKKKKEAIEKHLNKLKAKDKEAAERFLKELEEAAKEYAKDEAKTMSEEEAKRRAKKYKEKVLLSELSEEEQKEIKEAEEKLVRTILKYVEEAAK	0.593
E4N (designed binder) SMENEVEKAAKEYEKKKKEAIEKHLEKLKAKDKEAAERFLKELEEAAKEYAKDEAKTMSEEEAKRRAKKYKEKVLLSELSEEEQKEIKEAEEKLVRTILKYVEEAAK	0.539
K29E (designed binder) SMEEEVEKAAKEYEKKKKEAIEKHLEKLEAKDKEAAERFLKELEEAAKEYAKDEAKTMSEEEAKRRAKKYKEKVLLSELSEEEQKEIKEAEEKLVRTILKYVEEAAK	0.869
I98P (designed binder) SMEEEVEKAAKEYEKKKKEAIEKHLEKLKAKDKEAAERFLKELEEAAKEYAKDEAKTMSEEEAKRRAKKYKEKVLLSELSEEEQKEIKEAEEKLVRTPLKYVEEAAK	1.86
E54K (designed binder) SMEEEVEKAAKEYEKKKKEAIEKHLEKLKAKDKEAAERFLKELEEAAKEYAKDKAKTMSEEEAKRRAKKYKEKVLLSELSEEEQKEIKEAEEKLVRTILKYVEEAAK	8.56
E19P (designed binder) SMEEEVEKAAKEYEKKKKPAIEKHLEKLKAKDKEAAERFLKELEEAAKEYAKDEAKTMSEEEAKRRAKKYKEKVLLSELSEEEQKEIKEAEEKLVRTILKYVEEAAK	22.2
T57R (designed binder) SMEEEVEKAAKEYEKKKKEAIEKHLEKLKAKDKEAAERFLKELEEAAKEYAKDEAKRMSEEEAKRRAKKYKEKVLLSELSEEEQKEIKEAEEKLVRTILKYVEEAAK	0.49
K17M (designed binder) SMEEEVEKAAKEYEKKMKEAIEKHLEKLKAKDKEAAERFLKELEEAAKEYAKDEAKTMSEEEAKRRAKKYKEKVLLSELSEEEQKEIKEAEEKLVRTILKYVEEAAK	0.79
A105V (designed binder) SMEEEVEKAAKEYEKKKKEAIEKHLEKLKAKDKEAAERFLKELEEAAKEYAKDEAKTMSEEEAKRRAKKYKEKVLLSELSEEEQKEIKEAEEKLVRTILKYVEEVAK	1.16
K73I (designed binder) SMEEEVEKAAKEYEKKKKEAIEKHLEKLKAKDKEAAERFLKELEEAAKEYAKDEAKTMSEEEAKRRAKKYKEIVLLSELSEEEQKEIKEAEEKLVRTILKYVEEAAK	2.73
K68N (designed binder) SMEEEVEKAAKEYEKKKKEAIEKHLEKLKAKDKEAAERFLKELEEAAKEYAKDEAKTMSEEEAKRRANKYKEKVLLSELSEEEQKEIKEAEEKLVRTILKYVEEAAK	0.653
A106D (designed binder) SMEEEVEKAAKEYEKKKKEAIEKHLEKLKAKDKEAAERFLKELEEAAKEYAKDEAKTMSEEEAKRRAKKYKEKVLLSELSEEEQKEIKEAEEKLVRTILKYVEEADK	0.79
L79G (designed binder) SMEEEVEKAAKEYEKKKKEAIEKHLEKLKAKDKEAAERFLKELEEAAKEYAKDEAKTMSEEEAKRRAKKYKEKVLLSEGSEEEQKEIKEAEEKLVRTILKYVEEAAK	2.48
E78N (designed binder) SMEEEVEKAAKEYEKKKKEAIEKHLEKLKAKDKEAAERFLKELEEAAKEYAKDEAKTMSEEEAKRRAKKYKEKVLLSNLSEEEQKEIKEAEEKLVRTILKYVEEAAK	2.73
E104G (designed binder) SMEEEVEKAAKEYEKKKKEAIEKHLEKLKAKDKEAAERFLKELEEAAKEYAKDEAKTMSEEEAKRRAKKYKEKVLLSELSEEEQKEIKEAEEKLVRTILKYVEGAAK	0.446
